Article PMC10033279

Substrate: NC(=O)C1=CN([C@@H]2O[C@H](COP(=O)(O)OP(=O)(O)OC[C@H]3O[C@@H](n4cnc5c(N)ncnc54)[C@H](O)[C@@H]3O)[C@@H](O)[C@H]2O)C=CC1
Assay: purified protein
Assay type: biochemical, Pseudomonas aeruginosa
Conditions: varied 1,4-benzoquinone, 20 mM KPi, 200 mM NaCl, pH 7.0, 25 °C

B1: NADH:quinone oxidoreductase (NQO), PA1024 (Pseudomonas aeruginosa PAO1) (protein)
chain: MGVFRTRFTETFGVEHPIMQGGMQWVGRAEMAAAVANAGGLATLSALTQPSPEALAAEIARCRELTDRPFGVNLTLLPTQKPVPYAEYRAAIIEAGIRVVETAGNDPGEHIAEFRRHGVKVIHKCTAVRHALKAERLGVDAVSIDGFECAGHPGEDDIPGLVLLPAAANRLRVPIIASGGFADGRGLVAALALGADAINMGTRFLATRECPIHPAVKAAIRAADERSTDLIMRSLRNTARVARNAISQEVLAIEARGGAGYADIAALVSGQRGRQVYQQGDTDLGIWSAGMVQGLIDDEPACAELLRDIVEQARQLVRQRLEGMLAGV
notes: full-length gene PA1024 in pET20b(+), expressed in E. coli Rosetta(DE3)pLysS, purified; EC 1.6.5.9
Protein B1 has a Km of 70 ± 10 µM and a kcat of 27 ± 1 s⁻¹.
